Assay results taken from patent US12486322 (ANNEXON, dated 2025).

Key:
human C1q [1] = target: T1, human C1q (human, UniProt P02745 23-245; P02746 28-253; P02747 29-245); assay: cell-based or functional assay
human C1q [2] = target: T1, human C1q; assay: cell-based or functional assay; remark: listed apart in the source
[3] = target: T2, Cynomolgus serum derived C1q (cynomolgus monkey, UniProt A0A2K5WJV6 23-243; A0A2K5WNK0 28-253); assay: cell-based or functional assay
human C1q [4] = target: T1, human C1q; assay: sandwich ELISA, C1q from human serum captured by JL-1
Excerpt: (§1) Evaluation of binding to serum derived C1q: We compared binding of anti-C1q molecules to C1q from monkey and human serum. Binding to serum derived C1q was preformed using a sandwich ELISA. In this assay, a monoclonal antibody specific to the collagen tail of C1q (JL-1, Abcam) was used to capture the C1q, and then detected using the anti-C1q antibodies, which bind to the globular head groups of C1q. […] Next day, the plates were washed with dPBS (pH 7.4) and blocked with dPBS buffer containing 3% bovine serum albumin (BSA). Diluted serum samples were added to the plates and incubated overnight shaking at 4° C. Human and monkey serum samples were used at 1:2000 dilution in assay buffer, dPBS containing 0.3% BSA and 0.1% tween. Following overnight incubation at 4 C, plates were warmed to room temperature for 2 hours. […] Plates were washed with dPBS with 0.05% tween and then incubated with alkaline phosphatase conjugated anti-human Fc or Kappa antibodies at 1:3000 dilution in assay buffer. Plates were then washed, and detected using an enzyme substrate (T2214, Thermo) and read in a plate reader. Counts were background subtracted and normalized to signal at highest concentration, % normalized values were plotted as a function of concentration for each of the antibodies. Data were fit using a 4-parameter logistic fit to derive $EC50$ of binding and plotted using GraphPad Prism.

[5] = target: T2, Cynomolgus serum derived C1q; assay: sandwich ELISA, C1q from cynomolgus serum captured by JL-1
Excerpt: as §1

human C1q [6] = target: T1, human C1q; assay: direct ELISA, purified human C1q coated on the plate, luminescence
Procedure: Next day, plates are washed with dPBS thrice and blocked with 3% BSA/PBS for 1 hour at room temperature (RT). […] Following incubation for 1 hour at RT, plates are washed 4× with dPBS 0.05% Tween. Then, alkaline phosphatase (AP) conjugated secondary antibodies to human kappa (Abcam) and human FC (Jackson Immunoresearch), respectively at 2000-4000-fold dilution. After an additional 1 hour of incubation at RT, plates are washed 4× with dPBS 0.05% Tween and luminescence signal was developed with AP substrate (#T2214, Thermo Scientific). Luminescence counts were measured using a luminometer (Spectramax i3×, Molecular Devices). Raw counts were fit using a 4-parameter logistic to derive $EC50$ for human C1q binding (Prism, GraphPad).

[7] = target: T2, Cynomolgus serum derived C1q; assay: sandwich ELISA, serum C1q captured by JL-1; cynomolgus against human serum
Excerpt: as §1

human C1q [8] = target: T1, human C1q; assay: sandwich ELISA, serum C1q captured by JL-1; the low end is tied to human serum by Table 1
Excerpt: as §1

[9] = target: T2, Cynomolgus serum derived C1q; assay: sandwich ELISA, serum C1q captured by JL-1; the high end is tied to cynomolgus serum by Table 1
Excerpt: as §1

[10] = target: T2, Cynomolgus serum derived C1q; assay: sandwich ELISA, serum C1q captured by JL-1; the high end is tied to the single-arm antibody by Table 1 (2.1)
Excerpt: as §1

T1 sequence (P02745 23-245 limits assumed, chain 1 of 3): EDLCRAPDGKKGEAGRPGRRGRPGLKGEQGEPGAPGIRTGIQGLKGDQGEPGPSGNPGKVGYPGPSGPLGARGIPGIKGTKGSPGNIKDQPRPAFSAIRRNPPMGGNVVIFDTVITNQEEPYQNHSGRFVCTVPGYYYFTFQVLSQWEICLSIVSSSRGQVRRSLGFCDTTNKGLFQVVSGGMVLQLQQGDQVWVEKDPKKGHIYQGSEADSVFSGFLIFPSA
T1 sequence (P02746 28-253 limits assumed, chain 2 of 3): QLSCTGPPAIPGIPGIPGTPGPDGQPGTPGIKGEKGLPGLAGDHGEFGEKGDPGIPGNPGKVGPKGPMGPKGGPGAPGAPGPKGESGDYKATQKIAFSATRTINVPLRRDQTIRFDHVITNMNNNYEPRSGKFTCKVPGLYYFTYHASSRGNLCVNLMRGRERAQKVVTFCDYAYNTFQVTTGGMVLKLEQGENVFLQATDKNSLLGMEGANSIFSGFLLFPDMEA
T1 sequence (P02747 29-245 limits assumed, chain 3 of 3): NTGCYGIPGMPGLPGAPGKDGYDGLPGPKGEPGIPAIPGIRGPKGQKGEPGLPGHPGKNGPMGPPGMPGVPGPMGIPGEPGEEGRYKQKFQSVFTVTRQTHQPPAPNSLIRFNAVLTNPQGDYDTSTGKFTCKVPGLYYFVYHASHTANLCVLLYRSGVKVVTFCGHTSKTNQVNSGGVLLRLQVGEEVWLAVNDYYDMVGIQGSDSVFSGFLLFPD

EC50 (human C1q [4]): 178 nM | EC50 [5]: 378 nM | EC50 (human C1q [6]): 0.05 nM | Ratio Cyno:Human (binding EC50) [7]: 2.1 | EC50 (human C1q [8]): 150 to 400 nM | EC50 [9]: 150 to 400 nM | fold weaker binding EC50 in cynomolgus serum compared to human serum [10]: 1 to 2 fold
B1: anti-C1q single-arm antibody (with IgG4 and Fcγ receptor binding site mutation) (antibody)
light: DVQITQSPSSLSASLGERATINCRASKSINKYLAWYQQKPGKAPKLLIYSGSTLQSGIPARFSGSGSGTDFTLTISSLEPEDFAMYYCQQHNEYPLTFGQGTKLEIKRTVAAPSVFIFPPSDEQLKSGTASVVCLLNNFYPREAKVQWKVDNALQSGNSQESVTEQDSKDSTYSLSSTLTLSKADYEKHKVYACEVTHQGLSSPVTKSFNRGEC
heavy: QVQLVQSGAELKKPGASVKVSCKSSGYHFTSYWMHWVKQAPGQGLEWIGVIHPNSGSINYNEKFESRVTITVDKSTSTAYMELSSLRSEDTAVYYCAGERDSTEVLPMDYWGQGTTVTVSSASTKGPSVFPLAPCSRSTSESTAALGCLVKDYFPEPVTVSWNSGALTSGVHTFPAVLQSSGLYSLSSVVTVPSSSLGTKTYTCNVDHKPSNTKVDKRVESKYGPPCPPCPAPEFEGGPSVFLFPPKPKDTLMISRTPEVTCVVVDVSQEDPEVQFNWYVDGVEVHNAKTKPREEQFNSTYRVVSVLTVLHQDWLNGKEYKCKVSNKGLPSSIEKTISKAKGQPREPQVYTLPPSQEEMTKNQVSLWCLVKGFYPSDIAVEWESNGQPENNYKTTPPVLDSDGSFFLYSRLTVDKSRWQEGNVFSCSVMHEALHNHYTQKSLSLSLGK
chain: ESKYGPPCPPCPAPEFEGGPSVFLFPPKPKDTLMISRTPEVTCVVVDVSQEDPEVQFNWYVDGVEVHNAKTKPREEQFNSTYRVVSVLTVLHQDWLNGKEYKCKVSNKGLPSSIEKTISKAKGQPREPQVYTLPPSQEEMTKNQVSLSCAVKGFYPSDIAVEWESNGQPENNYKTTPPVLDSDGSFFLVSRLTVDKSRWQEGNVFSCSVMHEALHNHYTQKSLSLSLGK
notes: The third chain is the N-terminally truncated heavy chain (hinge-CH2-CH3, hole mutations); also called single-arm molecule; anti-C1q single-arm antibody (monovalent)
IC50 for inhibition of serum hemolysis (human C1q [1]): 3 to 10 nM | IC50 for hemolysis inhibition (nM), Human serum (human C1q [2]): 9.9 nM | IC50 for hemolysis inhibition (nM), Cyno serum [3]: 5.5 nM | IC50 for hemolysis inhibition, Ratio Cyno:Human [3]: 0.6
